Reference: patent publication US20260049138A1 (Chugai, published 2026)

Target: T1, CD3ε homodimer protein (human, UniProt P07766 23-126, limits assumed, sulfo-tag or biotin label in the ECL assays; amine-coupled to the chip in SPR)
T1 construct: also called human CD3ε homodimer protein; CD3 (CD3ε)
Experiment: SPR Biacore T200; CD3ε homodimer on CM4 chip;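 further: Single-residue variant antibodies injected as analyte over CD3ε homodimer immobilized by amine coupling, run at 25 °C in HBS-EP+ buffer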

T1 sequence (P07766 23-126 limits assumed): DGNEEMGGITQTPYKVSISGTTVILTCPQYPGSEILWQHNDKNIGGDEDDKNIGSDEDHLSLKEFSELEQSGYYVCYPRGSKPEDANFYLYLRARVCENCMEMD

Row | Binder | ratio of amounts bound Z=Y/X (altered form / CE115HA000)
1 | CE115HA000 K64D one-arm antibody (antibody, human IgG1, kappa, L234A L235A, N297A, name in Kabat numbering) heavy: QVQLVESGGGVVQPGRSLRLSCAASGFTFSNAWMHWVRQAPGKGLEWVAQIKAKSNNYATYYAESVDGRFTISRDDSKNSLYLQMNSLKTEDTAVYYCRYVHYGAYYGVDAWGQGTTVTVSSASTKGPSVFPLAPSSKSTSGGTAALGCLVKDYFPEPVTVSWNSGALTSGVHTFPAVLQSSGLYSLSSVVTVPSSSLGTQTYICNVNHKPSNTKVDKKVEPKSCDKTHTCPPCPAPEAAGGPSVFLFPPKPKDTLMISRTPEVTCVVVDVSHEDPEVKFNWYVDGVEVHNAKTKPREEQYASTYRVVSVLTVLHQDWLNGKEYKCKVSNKALPAPIEKTISKAKGQPREPQVYTLPPSRCELTKNQVSLSCAVKGFYPSDIAVEWESNGQPENNYKTTPPVLDSDGSFFLVSKLTVDKSRWQQGNVFSCSVMHEALHNHYTQKSLSLSPDYKDDDDK EPKSSDKTHTCPPCPAPELLGGPSVFLFPPKPKDTLMISRTPEVTCVVVDVSHEDPEVKFNWYVDGVEVHNAKTKPREEQYNSTYRVVSVLTVLHQDWLNGKEYKCKVSNKALPAPIEKTISKAKGQPREPQVCTLPPSRDELTKNQVSLWCLVKGFYPSDIAVEWESNGQPENNYKTTPPVLDSDGSFFLYSKLTVDKSRWQQGNVFSCSVMHEALHNRYTQKSLSLSP light: DIVMTQSPLSLPVTPGEPASISCRSSQSLVHSNRNTYLHWYQQKPGQAPRLLIYKVSNRFSGVPDRFSGSGSGTDFTLKISRVEAEDVGVYYCGQGTQVPYTFGQGTKLEIKRTVAAPSVFIFPPSDEQLKSGTASVVCLLNNFYPREAKVQWKVDNALQSGNSQESVTEQDSKDSTYSLSSTLTLSKADYEKHKVYACEVTHQGLSSPVTKSFNRGEC | 0.72
2 | CE115HA000 K64E one-arm antibody (antibody, human IgG1, kappa, L234A L235A, N297A, name in Kabat numbering) heavy: QVQLVESGGGVVQPGRSLRLSCAASGFTFSNAWMHWVRQAPGKGLEWVAQIKAKSNNYATYYAESVEGRFTISRDDSKNSLYLQMNSLKTEDTAVYYCRYVHYGAYYGVDAWGQGTTVTVSSASTKGPSVFPLAPSSKSTSGGTAALGCLVKDYFPEPVTVSWNSGALTSGVHTFPAVLQSSGLYSLSSVVTVPSSSLGTQTYICNVNHKPSNTKVDKKVEPKSCDKTHTCPPCPAPEAAGGPSVFLFPPKPKDTLMISRTPEVTCVVVDVSHEDPEVKFNWYVDGVEVHNAKTKPREEQYASTYRVVSVLTVLHQDWLNGKEYKCKVSNKALPAPIEKTISKAKGQPREPQVYTLPPSRCELTKNQVSLSCAVKGFYPSDIAVEWESNGQPENNYKTTPPVLDSDGSFFLVSKLTVDKSRWQQGNVFSCSVMHEALHNHYTQKSLSLSPDYKDDDDK EPKSSDKTHTCPPCPAPELLGGPSVFLFPPKPKDTLMISRTPEVTCVVVDVSHEDPEVKFNWYVDGVEVHNAKTKPREEQYNSTYRVVSVLTVLHQDWLNGKEYKCKVSNKALPAPIEKTISKAKGQPREPQVCTLPPSRDELTKNQVSLWCLVKGFYPSDIAVEWESNGQPENNYKTTPPVLDSDGSFFLYSKLTVDKSRWQQGNVFSCSVMHEALHNRYTQKSLSLSP light: DIVMTQSPLSLPVTPGEPASISCRSSQSLVHSNRNTYLHWYQQKPGQAPRLLIYKVSNRFSGVPDRFSGSGSGTDFTLKISRVEAEDVGVYYCGQGTQVPYTFGQGTKLEIKRTVAAPSVFIFPPSDEQLKSGTASVVCLLNNFYPREAKVQWKVDNALQSGNSQESVTEQDSKDSTYSLSSTLTLSKADYEKHKVYACEVTHQGLSSPVTKSFNRGEC | 0.74
